According to paper PMC3915414:

Key:
Test in all cases: solid-phase binding assay
[1] = biological target: alpha-dystroglycan from wild-type (C57BL/10) mouse heart (mouse (endogenous in heart)) (UniProt Q62165)
[2] = biological target: alpha-dystroglycan from dystrophin/utrophin-deficient (dko) mouse heart (mouse (endogenous in heart)) (UniProt Q62165)
[3] = biological target: alpha-dystroglycan from dystrophin-deficient (mdx) mouse heart (mouse (endogenous in heart)) (UniProt Q62165)

For “Engelbreth-Holm-Swarm (EHS) laminin (from UniProt P19137 25-3083; P02469 22-1786; P02468 34-1607) (complex)”, the Kd [1] was 21.2 nM, the Kd [2] was 18.8 nM and the Kd [3] was 33 nM.
